This test addresses EGF receptor (UniProt P00533 25-645). As to the kind of experiment: MST.

B1: EGFL7 (natural protein, UniProt Q9UHF1 24-273, looked up)
chain: YRPGRRVCAVRAHGDPVSESFVQRVYQPFLTTCDGHRACSTYRTIYRTAYRRSPGLAPARPRYACCPGWKRTSGLPGACGAAICQPPCRNGGSCVQPGRCRCPAGWRGDTCQSDVDECSARRGGCPQRCVNTAGSYWCQCWEGHSLSADGTLCVPKGGPPRVAPNPTGVDSAMKEEVQRLQSRVDLLEEKLQLVLAPLHSLASQALEHGLPDPGSLLVHSFQQLGRIDSLSEQISFLEEQLGSCSCKKDS
One may read the Kd as the equilibrium constant for the complex coming apart. Low readings indicate tighter binding, high ones weaker binding. B1 gave a Kd of 384 ± 76.5 nM.

The values are drawn from paper PMC4325230 (Stem Cell Reports, 2015).
